Common to all, as to details: tags: NLS, 6xHis
Data set [1] addresses T1, ZM6.3(G5) (artificial).
T1 chain: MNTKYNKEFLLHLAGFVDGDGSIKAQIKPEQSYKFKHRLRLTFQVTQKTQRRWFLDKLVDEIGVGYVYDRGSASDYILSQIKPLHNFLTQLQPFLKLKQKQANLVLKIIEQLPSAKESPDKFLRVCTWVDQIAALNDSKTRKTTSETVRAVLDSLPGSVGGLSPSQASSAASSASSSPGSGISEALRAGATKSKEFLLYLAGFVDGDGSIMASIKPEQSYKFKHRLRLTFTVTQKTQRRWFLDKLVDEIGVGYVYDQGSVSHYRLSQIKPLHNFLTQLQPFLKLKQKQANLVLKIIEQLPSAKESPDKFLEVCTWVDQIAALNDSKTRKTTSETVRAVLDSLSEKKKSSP
Nature of the data set: cell_activity; yeast 37 C; 28 C: 0. Here is the method: (§1) A 3 mL culture of selective media (MP Biomedical) was inoculated with a single colony of the yeast screening strain and grown at 30° C. overnight. On the following day, a 50 ml YPD culture (MP Biomedical) was started with 2 ml of the overnight culture and grown at 30° C. overnight. On the following day, the cells were harvested by centrifugation at 4000 rpm. The cells were resuspended in 100 ml ice cold water and centrifuged again. The cells were then washed in 1.2 M sorbitol, followed by treatment with 2 ml of 10 mM Tris pH 8.0, 1 mM EDTA, 100 mM Lithium acetate, 10 mM DTT, 0.6M sorbitol for 30 minutes at 30° C. with shaking. The cells were recovered by centrifugation, washed in 40 ml 1.2M sorbitol and finally resuspended in 250 microliters of 1.2M sorbitol. 50 microliter aliquots were transferred to test tubes on ice. Up to 5 microliters of DNA (100-500 nanograms) were added. The suspension was transferred to a 0.2 cm electroporation cuvette, on ice. Electroporation was performed with a pulse charge at 1.5 kV, 200 ohms, 25 microF (pulse time of 5 milliseconds). 1 mL YPD media (MP Biomedical) was added and the cells were allowed to recover at 30° C. for 1-2 hr. The cells were centrifuged, resuspended in 100 uL 1M sorbitol and plated on selective media lacking leucine and containing 2% galactose. The resulting yeast colonies were incubated at various temperatures ranging from 22 to 37 degrees Celsius for 7-10 days. I-CreI and meganucleases derived from it have maximal activity at or above 37 degrees Celsius. Screening was performed at a range of temperatures from 22 to 37 degrees in order to observe increases in activity at lower temperatures which are relevant to certain biological systems (eg. plant cells, plant cell cultures, etc). At that time the red/white sectoring phenotype, indicative of meganuclease activity was observed. Colonies with increased white sectoring over the parental meganuclease (indicating colonies expressing a meganuclease with increased meganuclease activity), also referred to as “hits” and sometimes completely white, were isolated for further analysis. […]

In data set [2] the target is T2, ZM6.3(3) (artificial).
T2 chain: T1 chain with H12Y, A73V, E117G, R124E
The data set is described as follows: cell_activity; yeast 37 C; 28 C: 0. The method, then: as §1

In data set [3] the target is T3, ZM6.3 (artificial).
T3 chain: T1 chain with H12Y, A73V, R124E
The data set is described as follows: cell_activity; yeast 37 C; 28 C: 0. The method, then: as §1

Data set [4] has as its target T4, LIG3-4(B38) (artificial).
T4 chain: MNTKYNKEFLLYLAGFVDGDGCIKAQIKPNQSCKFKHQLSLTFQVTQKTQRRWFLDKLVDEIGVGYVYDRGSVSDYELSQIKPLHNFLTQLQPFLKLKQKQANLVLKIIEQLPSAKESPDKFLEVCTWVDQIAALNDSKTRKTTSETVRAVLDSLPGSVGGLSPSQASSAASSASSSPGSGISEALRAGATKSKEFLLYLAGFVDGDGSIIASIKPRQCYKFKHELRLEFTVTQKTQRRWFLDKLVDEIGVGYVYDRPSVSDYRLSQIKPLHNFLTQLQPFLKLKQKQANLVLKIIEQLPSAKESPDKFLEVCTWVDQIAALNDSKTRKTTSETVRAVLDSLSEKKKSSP
The data set is described as follows: cell_activity; yeast 30 C; 22 C: 0. Here is the method: (§2) A 3 mL culture of selective media (MP Biomedical) was inoculated with a single colony of the yeast screening strain and grown at 30° C. overnight. On the following day, a 50 ml YPD culture (MP Biomedical) was started with 2 ml of the overnight culture and grown at 30° C. overnight. On the following day, the cells were harvested by centrifugation at 4000 rpm. The cells were resuspended in 100 ml ice cold water and centrifuged again. The cells were then washed in 1.2 M sorbitol, followed by treatment with 2 ml of 10 mM Tris pH 8.0, 1 mM EDTA, 100 mM Lithium acetate, 10 mM DTT, 0.6M sorbitol for 30 minutes at 30° C. with shaking. The cells were recovered by centrifugation, washed in 40 ml 1.2M sorbitol and finally resuspended in 250 microliters of 1.2M sorbitol. 50 microliter aliquots were transferred to test tubes on ice. Up to 5 microliters of DNA (100-500 nanograms) were added. The suspension was transferred to a 0.2 cm electroporation cuvette, on ice. Electroporation was performed with a pulse charge at 1.5 kV, 200 ohms, 25 microF (pulse time of 5 milliseconds). 1 mL YPD media (MP Biomedical) was added and the cells were allowed to recover at 30° C. for 1-2 hr. The cells were centrifuged, resuspended in 100 uL 1M sorbitol and plated on selective media lacking leucine and containing 2% galactose. The resulting yeast colonies were incubated at various temperatures ranging from 22 to 37 degrees Celsius for 7-10 days. I-CreI and meganucleases derived from it have maximal activity at or above 37 degrees Celsius. Screening was performed at a range of temperatures from 22 to 37 degrees in order to observe increases in activity at lower temperatures which are relevant to certain biological systems (eg. plant cells, plant cell cultures, etc). At that time the red/white sectoring phenotype, indicative of meganuclease activity was observed. Colonies with increased white sectoring over the parental meganuclease (indicating colonies expressing a meganuclease with increased meganuclease activity), also referred to as “hits” and sometimes completely white, were isolated for further analysis.

The target in data set [5] is T5, LIG3-4(A4) (artificial).
T5 chain: T4 chain with C22S, I132V, P258G, I319V
The data set is described as follows: cell_activity; yeast 30 C; 22 C: 0. Here is the method:
as §2

Positions count from the first letter of the chain named.

B1: ZM6.3 recognition site (dsDNA)
DNA 1: CAGGCTCTCGTAAATGCGCCTG
DNA 2: CAGGCGCATTTACGAGAGCCTG
For the molecule B1, the activity in data set [1], in data set [2] and in data set [3] was 2 score 0-4 in each case.

B2: LIG3-4 recognition site (dsDNA)
DNA 1: ATATACCTCACACGTACGCGTA
DNA 2: TACGCGTACGTGTGAGGTATAT
With B2, the values for the activity in data set [4] and in data set [5] were 4 score 0-4 and 3.5 score 0-4, respectively.
